Test results taken from PMC2764089.

Molecular target: Spc105p-PrA (S. cerevisiae) (UniProt P53148)
Assay: SEC + other: glycerol-gradient velocity ultracentrifugation; whole cell extracts of wild-type strains expressing Spc105p-PrA or Kre28p-PrA (each fusion in its own strain); 10-40% glycerol gradients and HiPrep 16/60 Sephacryl S-500 HR column; fractions found by western blotting with anti-PrA

Sequence of UniProt P53148 (P53148 whole entry, the tested form may be a part): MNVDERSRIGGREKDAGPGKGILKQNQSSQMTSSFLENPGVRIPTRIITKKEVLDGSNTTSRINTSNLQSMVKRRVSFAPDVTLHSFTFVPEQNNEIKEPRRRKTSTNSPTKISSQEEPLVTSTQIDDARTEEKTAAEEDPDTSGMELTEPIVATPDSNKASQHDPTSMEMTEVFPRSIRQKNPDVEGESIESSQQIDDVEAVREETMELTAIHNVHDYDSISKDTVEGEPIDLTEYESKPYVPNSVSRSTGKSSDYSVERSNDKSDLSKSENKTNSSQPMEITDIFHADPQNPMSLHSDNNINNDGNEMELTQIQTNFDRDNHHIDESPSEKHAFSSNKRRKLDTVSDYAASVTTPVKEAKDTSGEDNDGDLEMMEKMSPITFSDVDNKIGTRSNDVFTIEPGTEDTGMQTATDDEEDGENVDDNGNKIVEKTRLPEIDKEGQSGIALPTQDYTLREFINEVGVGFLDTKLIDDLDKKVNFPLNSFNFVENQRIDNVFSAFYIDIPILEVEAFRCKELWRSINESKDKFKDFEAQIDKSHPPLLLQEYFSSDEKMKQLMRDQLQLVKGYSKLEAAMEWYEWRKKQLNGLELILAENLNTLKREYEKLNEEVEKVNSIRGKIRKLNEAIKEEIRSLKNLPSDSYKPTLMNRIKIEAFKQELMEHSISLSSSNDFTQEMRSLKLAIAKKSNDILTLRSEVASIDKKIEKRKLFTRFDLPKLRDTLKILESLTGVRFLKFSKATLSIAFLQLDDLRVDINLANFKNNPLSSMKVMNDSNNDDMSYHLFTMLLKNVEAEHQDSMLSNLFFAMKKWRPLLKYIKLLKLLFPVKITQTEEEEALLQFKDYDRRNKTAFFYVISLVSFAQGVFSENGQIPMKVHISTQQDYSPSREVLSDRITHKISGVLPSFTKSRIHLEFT

Kre28p-PrA (from UniProt Q04431 1-385) (natural protein)
stoichiometry N (Kre28p per Spc105p): 2
